Reference: paper PMC10803263, “General transcription factor from Escherichia coli with a distinct mechanism of action” (Nature Structural & Molecular Biology, 2023)

How the values were obtained:
σ^70 (purified) = biological target: T1, σ^70 (purified) (E. coli, UniProt P00579 1-613); assay: cryo-EM structure; purified Eσ^70 incubated with ssrA promoter DNA (threefold excess), then CedA (fivefold molar excess over RNAP); complex repurified on Superose 6 Increase in 30 mM HEPES pH 8.0, 100 mM KCl, 5 mM MgCl2, 0.5 mM TCEP; 2.76 Å; settings: both partners purified
T1 construct: RNA polymerase sigma factor σ70 (RpoD), WT E. coli; also called RpoD
T1 sequence (P00579 whole entry): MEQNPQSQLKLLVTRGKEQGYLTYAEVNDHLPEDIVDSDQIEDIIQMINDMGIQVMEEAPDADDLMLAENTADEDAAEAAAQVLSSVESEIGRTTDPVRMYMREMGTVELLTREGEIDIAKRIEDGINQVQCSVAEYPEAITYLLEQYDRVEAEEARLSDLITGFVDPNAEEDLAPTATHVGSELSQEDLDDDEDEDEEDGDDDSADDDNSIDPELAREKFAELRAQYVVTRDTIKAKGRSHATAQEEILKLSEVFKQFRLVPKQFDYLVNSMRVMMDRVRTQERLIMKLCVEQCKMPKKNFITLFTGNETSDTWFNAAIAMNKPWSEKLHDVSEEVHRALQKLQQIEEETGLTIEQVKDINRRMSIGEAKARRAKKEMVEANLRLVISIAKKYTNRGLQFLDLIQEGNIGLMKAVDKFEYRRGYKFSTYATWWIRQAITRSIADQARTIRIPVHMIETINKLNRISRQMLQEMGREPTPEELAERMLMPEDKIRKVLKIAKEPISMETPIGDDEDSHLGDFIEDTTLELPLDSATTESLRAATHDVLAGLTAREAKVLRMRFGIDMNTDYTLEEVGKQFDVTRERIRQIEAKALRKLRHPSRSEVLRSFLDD

[1] = biological target: T2, RNA polymerase β subunit (in purified RNAP) (E. coli, UniProt P0A8V2 1-1342); assay: as above; settings: both partners purified
T2 construct: RNA polymerase β subunit (RpoB), WT E. coli; Stood in the assay as a subunit of the purified RNAPσ70 holoenzyme; also called β-lobe/βi4
T2 sequence (P0A8V2 whole entry): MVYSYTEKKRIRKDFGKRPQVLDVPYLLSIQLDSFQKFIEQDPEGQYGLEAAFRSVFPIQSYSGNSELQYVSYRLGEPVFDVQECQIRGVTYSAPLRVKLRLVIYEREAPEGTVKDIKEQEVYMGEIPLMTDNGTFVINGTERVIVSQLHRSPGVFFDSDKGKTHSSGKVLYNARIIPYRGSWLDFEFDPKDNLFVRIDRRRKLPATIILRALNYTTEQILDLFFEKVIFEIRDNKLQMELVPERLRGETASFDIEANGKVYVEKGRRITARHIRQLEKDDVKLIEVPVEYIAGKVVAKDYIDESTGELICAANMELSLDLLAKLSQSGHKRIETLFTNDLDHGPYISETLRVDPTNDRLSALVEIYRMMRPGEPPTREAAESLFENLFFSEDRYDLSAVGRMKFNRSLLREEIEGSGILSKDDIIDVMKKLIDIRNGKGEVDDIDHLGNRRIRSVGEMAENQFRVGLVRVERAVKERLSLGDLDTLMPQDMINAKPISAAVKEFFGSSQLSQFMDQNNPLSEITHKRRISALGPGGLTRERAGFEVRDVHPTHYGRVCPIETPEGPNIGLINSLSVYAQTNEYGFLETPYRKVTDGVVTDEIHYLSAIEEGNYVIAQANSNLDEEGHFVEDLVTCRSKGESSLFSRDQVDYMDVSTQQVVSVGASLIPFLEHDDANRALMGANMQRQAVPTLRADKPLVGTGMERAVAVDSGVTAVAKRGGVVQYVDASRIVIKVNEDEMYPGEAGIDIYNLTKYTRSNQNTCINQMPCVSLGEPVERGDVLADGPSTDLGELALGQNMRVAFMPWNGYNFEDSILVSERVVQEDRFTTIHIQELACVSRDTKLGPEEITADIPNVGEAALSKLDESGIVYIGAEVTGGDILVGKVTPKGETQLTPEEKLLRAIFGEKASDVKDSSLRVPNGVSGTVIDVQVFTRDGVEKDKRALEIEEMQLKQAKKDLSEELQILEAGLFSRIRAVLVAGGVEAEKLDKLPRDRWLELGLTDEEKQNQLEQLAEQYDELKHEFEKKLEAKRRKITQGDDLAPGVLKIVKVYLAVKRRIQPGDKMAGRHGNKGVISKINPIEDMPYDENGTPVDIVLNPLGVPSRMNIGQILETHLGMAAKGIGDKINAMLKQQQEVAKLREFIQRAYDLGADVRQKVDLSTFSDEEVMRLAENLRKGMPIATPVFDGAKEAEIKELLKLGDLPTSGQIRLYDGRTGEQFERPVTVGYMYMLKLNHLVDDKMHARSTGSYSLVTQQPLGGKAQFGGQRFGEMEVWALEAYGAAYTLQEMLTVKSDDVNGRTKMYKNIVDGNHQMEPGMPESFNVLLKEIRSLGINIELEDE

B1: CedA (purified recombinant) (natural protein, E. coli, UniProt P0AE60 1-80, looked up)
chain: MKKPLRQQNRQIISYVPRTEPAPPEHAIKMDSFRDVWMLRGKYVAFVLMGESFLRSPAFTVPESAQRWANQIRQEGEVTE
notes: CedA, E. coli; the open reading frame of cedA amplified from the MG1655 chromosome; also called WT CedA; source: E. coli BL21(DE3), pSumoH10-cedA, purified (HisTrap, Ulp1 tag removal, HiTrap SP, Superdex 75); not shown: 10× His, N-terminal, cleaved; SUMO, N-terminal, cleaved
- binding result (σ^70 (purified)): binds
- binding result [1]: binds
